T1: bovine heart E2 of the native bovine PDC core (bE2/E3BP) (bovine, UniProt P11180 87-647)
T1 construct: E2 (dihydrolipoamide acetyltransferase) of bovine heart pyruvate dehydrogenase complex, native; also called E2 of bE2/E3BP; source: purified from bovine heart PDC (sucrose gradients in 2 M NaCl), as bE2/E3BP core
T1 sequence (looked up): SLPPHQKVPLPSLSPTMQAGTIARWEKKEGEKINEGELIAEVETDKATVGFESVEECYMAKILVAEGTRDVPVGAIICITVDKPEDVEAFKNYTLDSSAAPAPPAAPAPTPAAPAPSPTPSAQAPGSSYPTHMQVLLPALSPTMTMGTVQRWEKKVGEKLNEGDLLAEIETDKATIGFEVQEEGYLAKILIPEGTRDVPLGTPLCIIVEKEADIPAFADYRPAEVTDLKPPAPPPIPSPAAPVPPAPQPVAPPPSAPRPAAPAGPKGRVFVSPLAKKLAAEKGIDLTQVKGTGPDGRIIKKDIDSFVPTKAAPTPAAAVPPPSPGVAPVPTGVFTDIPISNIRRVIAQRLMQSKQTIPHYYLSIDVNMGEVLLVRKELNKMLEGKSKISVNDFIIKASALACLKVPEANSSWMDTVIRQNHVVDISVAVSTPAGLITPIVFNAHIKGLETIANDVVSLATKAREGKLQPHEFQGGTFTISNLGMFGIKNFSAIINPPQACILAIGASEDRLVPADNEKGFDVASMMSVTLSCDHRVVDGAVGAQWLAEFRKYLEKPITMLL


Tests used:
[1] = target: the molecule itself; experiment: AUC; sedimentation velocity of the cores; 76-306 nM rE2/E3BP, 60-260 nM rE2, 116-730 nM tE2/E3BP; PEBS100 buffer (2 mM EDTA, 100 mM NaCl, 50 mM KH2PO4, pH 7.5); 20,000 rpm, 4 °C; interference optics
[2] = target: T1, bovine heart E2 of the native bovine …; experiment: SAXS; beamline X33 EMBL/DESY; PEBS100 buffer; 830.9 nM rE2/E3BP and 183.1 nM bE2/E3BP used for ab initio modelling (GASBOR, icosahedral symmetry); settings: both partners purified

Row | Binder | stoichiometry N [1] | binding result [2]
1 | recombinant full-length E2-only PDC core (rE2); dihydrolipoamide acetyltransferase of human pyruvate dehydrogenase complex (enzyme, UniProt P10515 87-647, looked up, E2 (dihydrolipoamide acetyltransferase) of the human pyruvate dehydrogenase complex, full-length recombinant; monomer printed as 61 kDa; 60-mer mass from composition 3,741,780 Da; Cultures were supplemented with lipoic acid on induction; source: E. coli BL21 star (DE3), pET14b, purified (zinc chelate, anion exchange, gel filtration); not shown: His tag, N-terminal, kept; copies: 60) SLPPHQKVPLPSLSPTMQAGTIARWEKKEGDKINEGDLIAEVETDKATVGFESLEECYMAKILVAEGTRDVPIGAIICITVGKPEDIEAFKNYTLDSSAAPTPQAAPAPTPAATASPPTPSAQAPGSSYPPHMQVLLPALSPTMTMGTVQRWEKKVGEKLSEGDLLAEIETDKATIGFEVQEEGYLAKILVPEGTRDVPLGTPLCIIVEKEADISAFADYRPTEVTDLKPQVPPPTPPPVAAVPPTPQPLAPTPSAPCPATPAGPKGRVFVSPLAKKLAVEKGIDLTQVKGTGPDGRITKKDIDSFVPSKVAPAPAAVVPPTGPGMAPVPTGVFTDIPISNIRRVIAQRLMQSKQTIPHYYLSIDVNMGEVLLVRKELNKILEGRSKISVNDFIIKASALACLKVPEANSSWMDTVIRQNHVVDVSVAVSTPAGLITPIVFNAHIKGVETIANDVVSLATKAREGKLQPHEFQGGTFTISNLGMFGIKNFSAIINPPQACILAIGASEDKLVPADNEKGFDVASMMSVTLSCDHRVVDGAVGAQWLAEFRKYLEKPITMLL | 60 | –
2 | bovine heart E3BP of the native bovine PDC core (bE2/E3BP) (natural protein, UniProt P22439 54-501, looked up, also called E3BP of bE2/E3BP; source: purified from bovine heart PDC (sucrose gradients in 2 M NaCl), as bE2/E3BP core) ADPIKILMPSLSPTMEEGNIVKWLKKEGEAVSAGDALCEIETDKAVVTLDASDDGILAKIVVAEGSKNIRLGSLIGLLVEEGEDWKHVEIPKDTGPPPPAAKPSVPPPSAEPQIATPVKKEHPPGKVQFRLSPAARNILEKHALDANQGTATGPRGIFTKEDALKLVQLKQTGKITEPRPTAALPTTPAAPLPPQAAATASYPRPMIPPVSTPGQPNVEGTFTEIPASNIRRVIAKRLTESKSTIPHAYATTDCDLGAVLTARQNLVRDDIKVSVNDFIIKAAAVTLKQMPNVNASWDGEGAKQLPSIDISVAVATDRGLITPVIKDAAAKGLQEIADSVKALSKKARDGKLLPEEYQGGSFSISNLGMFGIDEFTAVINPPQACILAVGRFRPVLKLTQDEEGNAQLQQRQLITVTMSSDSRVVDDELATRFLESFKANLENPLRLA | – | binds

Reference: publication PMC2880790, “Solution Structure and Characterisation of the Human Pyruvate Dehydrogenase Complex Core Assembly” (Journal of Molecular Biology, 2010)
